Reference: patent US7341730B1, “Inhibitors of angiogenesis and tumor growth” (University of Southern California, priority 1998, dated 2008)
“Also recorded” adds a separate entry of the source.

Tests used:
[1] = test system: CD34+ cord blood derived cells; experiment: Viability of CD34+ cord blood derived cells; format: cell-based, human
Text: However in the presence of Saposin B, CD34^+/Flk-1^+ progenitor growth was inhibited.
Saposin B was found not to be toxic to most CD34^+ cord blood derived cells, since the difference in viability of Saposin B treated CD34^+ cells was only around 20% when compared to control cells. Thus Saposin B not only targets fully differentiated and activated endothelial cells, but also a circulating progenitor, previously shown to target angiogenic sites.

[2] = test system: CD34+/Flk-1+ cells from cord blood; experiment: Growth of CD34+/Flk-1+ progenitors on fibronectin coated dishes; format: cell-based, human; settings: 50 ng/mL
Text: A bone marrow derived human CD34+/Flk-1+ progenitor cell can be mobilized into the blood stream in response to tumor induced signals such as VEGF and cytokine production. These cells can target to sites of angiogenesis where they mature into activated endothelial cells and thus contribute to the generation of new blood vessels at the tumor site. By blocking the production of these cells or by targeting these cells (i.e., the CD34+/Flk-1+ progenitors and the activated endothelial cell they can become), the angiogenesis/vasculogenesis required for tumor growth can be reduced or halted. […] The adherent cells take on a spindle-shaped morphology characteristic of the activated vascular endothelial cells typical of the angiogenic process. These cells express endothelial-specific markers including factor VIII, ulex europaeus agglutinin-1 (UEA-1), endothelial constitutive nitric oxide synthase (ecNOS), and E selectin. Further, when these cells (peripheral blood Flk+ progenitors) are infused into mice, they incorporate into newly formed blood vessels at site of injury. These observation identify CD34+/Flk-1+ bone marrow derived progenitors as a putative precursor to vascular endothelial cells. Preventing these cells from colonizing at distal sites of angiogenesis in tumors has enormous implication for the treatment of tumors. […]

[3] = test system: Lewis lung carcinoma; experiment: Syngeneic tumor growth in C57BL/6 mice, Lewis lung carcinoma; format: in vivo; settings: 2.5 mg/kg from the day following implantation, two weeks
Protocol: (§1) FIG. 4: Inhibition of tumor growth in mice. C57BL/6 mice were implanted with Lewis lung carcinoma, melanoma (B 16), and T-cell lymphoma (EL4). KS Y-1 was implanted in nude mice as a positive control. One day after implantation 2.5 mg/kg of Saposin B was injected into the mice subcutaneously.
(§2) To determine whether this anti-tumor effect was reproducible with different classes of syngeneic-tumors, C57BL/6 mice were implanted with Lewis lung carcinoma, melanoma (B16), and T-cell lymphoma (EL-4) cell lines. KS Y-1 was implanted into nude mice for a positive control. The day following tumor implantation, 2.5 mg/kg of Saposin B was administered intraperitoneally. Tumor size was measured three times a week for two weeks at which time the mice were sacrificed for analysis. […] See, FIG. 4

[4] = test system: KS cell lines; experiment: Growth inhibition of KS cell lines by recombinant proteins; format: cell-based; settings: recombinant or naturally occurring protein
Protocol: (§3) Typically, in an anti-proliferation assay, the suppression of growth in the presence of the compound to be tested is measured. For example, the above cells are incubated with the polypeptides of this invention for a suitable time and the decrease in the growth rate relative to a negative control, i.e., cells of the same cell line which have been incubated in media alone, is measured. Growth of the cell culture can be measured by any method acceptable to one of skill, including but not limited to, 3H-thymidine uptake, cell counting and tetrazolium dye uptake.
(§4) By SDS-PAGE, the bacterial product was smaller than the eukaryotic protein. Because prokaryotically expressed proteins are not glycosylated, the difference in molecular weights probably represents the presence of carbohydrate in the eukaryotic protein. Recombinant proteins were then tested in KS, endothelial and control cell lines. Activity was found only in KS cell lines and endothelial cells.

[5] = test system: angiogenesis induced by VEGF or bFGF in chicken allantoic membrane (CAM); experiment: Chicken allantoic membrane (CAM) angiogenesis assay; format: in vivo; settings: 48 hours
Protocol: In order to test anti-angiogenic activity, chicken allantoic membrane (CAM) assays were performed with recombinant Saposin B. Ten day old fertilized chicken eggs were prepared for assay by creating a window in the egg shell, and placing filter paper discs saturated with VEGF or bFGF as positive controls, test compounds, or carrier buffer (negative controls) on the allantoic membrane. The membranes were harvested after 48 hours and analyzed using an Olympus stereomicroscope. The number of branching blood vessels that infiltrated under the discs were counted and photographed. Eight CAMs were studied for test group, and the experiments were repeated at least twice.

[6] = test system: T-cell lymphoma (EL-4); experiment: Syngeneic tumor growth in C57BL/6 mice, T-cell lymphoma (EL-4); format: in vivo; settings: 2.5 mg/kg from the day following implantation, two weeks
Protocol: as §1, §2

[7] = test system: endothelial cells (HUVEC); experiment: Growth inhibition of endothelial cells; format: cell-based
Protocol: as §3, §4

[8] = test system: KS-SLK or KS Y-1 tumors; experiment: KS tumor growth in nude mice; format: in vivo
Protocol: FIG. 6: Effect of pentapeptide DVCQD (SEQ ID NO:28) on the growth of established KS Y-1 tumors in mice. Mice were implanted with the tumor on day one. Treatment with the peptide was started on the following day at a dose of 50 mg/kg subcutaneously daily. […] The arrow marks initiation of daily subcutaneous dosing.
In order to determine the anti-angiogenic activity of the recombinant Saposin B, tumor cells were implanted in immuno-deficient mice and treated with either Saposin B or buffer alone.
Nude mice were injected with 2×10^6 KS-SLK or KS Y-1 cells subcutaneously in a total volume of 100 μL. After one week of tumor development, the mice were injected subcutaneously daily with either PBS or Saposin B at concentrations of 1, 10 and 20 mg/kg for a total protein concentration of […]. The tumor size was measured three times a week. The results represent the median of 4 mice in each group.
as §2
In further experiments, KS tumors were allowed to grow for five days before treatment with Saposin B (1 and 5 mg/kg daily at a distal site from the timer tumor). In control mice, tumors grew to a weight of 555+mg. […] Tumors excised at the conclusion of the experiments were also examined for apoptosis, blood vessel density, and mitotic index. […] Thus, contrary to the results in vitro, Saposin B has an inhibitory effect against […] tumors.

[9] = test system: melanoma (B16); experiment: Syngeneic tumor growth in C57BL/6 mice, melanoma (B16); format: in vivo; settings: 2.5 mg/kg from the day following implantation, two weeks
Protocol: as §1, §2

[10] = test system: Human bone marrow cells and peripheral blood mononuclear cells; experiment: Stem cell clonogenic assays in methylcellulose; format: cell-based; settings: VEGF 10 and 100 ng/mL
Protocol: Human bone marrow cells and peripheral blood mononuclear cells were harvested from a subject after the administration of high doses of cyclophosphamide and G-CSF. Stem cell clonogenic assays in methylcellulose were performed with IL-3, erythropoietin, and VEGF (10 ng/mL, and 100 ng/mL). VEGF was used to determine if there are progenitor cells with self replication capacity but without adherence to extracellular matrix such as fibronectin. It was also desirable to determine if Saposin B was toxic to endothelial cell specific progenitors for hematopoietic (myeloid or erythroid) lineage cells.
These colonies contained mixture of cells indicating more than one cell lineage generated in response to VEGF. The colonies also contained spindle shaped cells which mark the presence of VEGF receptors.

[11] = test system: KS cell lines; experiment: KS cell migration in transwell plates; format: cell-based; settings: chemotaxis induced by VEGF or bFGF
Protocol: The assays were done in double chamber wells separated by fibrinogen-coated membrane. Chemotaxis was induced by bFGF (25 ng/mL) in the lower chamber. Endothelial cells or KS cells (5×10^4/mL) were placed in the upper chamber in the presence and absence of test polypeptides. Taxol at 10 ng/mL was used as a known inhibitor of migration. Cell migration across the membrane was quantitated after an overnight incubation.
Angiogenesis is mediated by complex biochemical processes including degradation of the basement membrane under existing blood vessel endothelial cells, followed by proliferation and migration of endothelial cells, followed by formation of capillary loops, and recruitment of vascular smooth muscle cells to encase the newly formed vessels and provide stability. KS and endothelial cell migration in the presence of Saposin B was studied in transwell culture plates with 8 μm pore membranes (Costar, Cambridge, Mass.).
Briefly, wells were coated with fibronectin (25 μg/mL) overnight, and endothelial cells or KS cells were plated in the upper chamber with 100 μL of DMEM/0.4% FCS. 500 μL of DMEM/0.4% FCS was added to the lower chamber and incubated at 37° C. for one hour. The test polypeptides, at various concentrations, were added to the upper chamber, and chemotactic agents (VEGF or bFGF at 20 ng/mL) were added to the lower cell-culture chambers. The plates were incubated for 5 hr at 37° C. and the cells crossing the fibronectin-coated membrane were counted after wiping the cells off the membrane in the upper chamber with a cotton swab.
The cells that traversed the membrane were fixed with Diff-Quik stain according to the manufacturer's instruction (Dade Diagnostics Inc., Aguada, PR). The cells were counted under a microscope at 320× in four randomly selected fields. The experiments were done in duplicate and repeated at least three times.

[12] = KS tumors grown five days before treatment, 1 and 5 mg/kg daily

B1: Saposin B: polypeptide fragment of Prosaposin, positions 190 to 269 (SEQ ID NO:2); tested as recombinant protein (protein, listed as Homo sapiens)
chain: GDVCQDCIQMVTDIQTAVRTNSTFVQALVEHVKEECDRLGPGMADICKNYISQYSEIAIQMMMHMQPKEICALVGFCDEVK
modifications: Saposin B
notes: tested as recombinant protein
With B1 as the molecule, how does the “difference in viability of treated CD34+ cells compared to control cells” value [1] read?
The value was “around 20%”.

What about the “CD34+/Flk-1+ progenitor growth” value [2] of the same molecule?
Its value is “inhibited”.

And the tumor growth [3]?
Its tumor growth is “profound inhibition of tumor growth”.

And the “growth inhibition / activity against KS cell lines” value [4]?
Its value is “dose dependent growth inhibition”.

What about the “inhibition of angiogenesis (number of blood vessel branches) in CAMs” value [5] of the same molecule?
The value was “effectively blocked angiogenesis; also recorded: inhibited by Saposin B in a dose-dependent fashion”.

And the tumor growth [6]?
The tumor growth was “profound inhibition of tumor growth”.

And the “growth inhibition / activity against endothelial cells” value [7]?
The value was “dose dependent growth inhibition”.

What about the tumor growth ([8]; KS Y-1 in nude mice, 2.5 mg/kg from the day following implantation, two weeks) of the same molecule?
Its tumor growth is “profound inhibition of tumor growth”.

And the “apoptosis in excised tumors” value [8, 12]?
Its value is “increase in apoptosis”.

And the “blood vessel density in excised tumors” value [8, 12]?
Its value is “decrease in blood vessel density”.

What about the “weights of excised tumors relative to controls” value [8, 12] of the same molecule?
The value was “approximately 23%”.

What about the tumor growth ([8]; nude mice, KS-SLK or KS Y-1, subcutaneously daily after one week, 1, 10 and 20 mg/kg) of the same molecule?
The tumor growth was “markedly retarded”.

And the tumor growth [9]?
The tumor growth was “profound inhibition of tumor growth”.

And the “effect on colonies generated with VEGF” value [10]?
The value was “loss of spindle shaped cells”.

And the “inhibition of KS cell migration” value [11]?
Its value is “compete inhibition of cell migration”.
